{
  "source": "patent US20250011363A1",
  "about": "“OPTIMIZED SHORTENED PEPTIDE THAT BINDS TO ACETYLCHOLINE RECEPTOR, AND USE THEREOF” (SKINMED CO., LTD., priority 2021, published 2025)",
  "data": [
    {"molecular_target": "acetylcholine receptor", "assay": "SPR, AchR immobilised on chip, peptide 10 uM", "units": {"Binding affinity (RU)": "RU"}, "values": [
      {"binder": "RRGVRR", "note": "[6mer-1-210]", "Binding affinity (RU)": 184}
    ]},
    {"molecular_target": "acetylcholine receptor", "assay": "SPR, AchR immobilized on chip", "units": {"Binding affinity (RU)": "RU"}, "values": [
      {"binder": "RRGVRR", "note": "[6mer-1-210]", "Binding affinity (RU)": 184},
      {"binder": "RRQRR", "note": "[5mer-73]", "Binding affinity (RU)": 179},
      {"binder": "RWRYKR", "note": "[6mer-2-136]", "Binding affinity (RU)": 194},
      {"binder": "KRRGVRR", "Binding affinity (relative to RRGVRR) (value relative to the RRGVRR sequence)": 169},
      {"binder": "RRGVRRK", "Binding affinity (relative to RRGVRR) (value relative to the RRGVRR sequence)": 171},
      {"binder": "RRRGVRR", "Binding affinity (relative to RRGVRR) (value relative to the RRGVRR sequence)": 185},
      {"binder": "RRGVRRR", "Binding affinity (relative to RRGVRR) (value relative to the RRGVRR sequence)": 188},
      {"binder": "HRRGVRR", "Binding affinity (relative to RRGVRR) (value relative to the RRGVRR sequence)": 160},
      {"binder": "RRGVRRH", "Binding affinity (relative to RRGVRR) (value relative to the RRGVRR sequence)": 154},
      {"binder": "DRRGVRR", "Binding affinity (relative to RRGVRR) (value relative to the RRGVRR sequence)": 159},
      {"binder": "RRGVRRD", "Binding affinity (relative to RRGVRR) (value relative to the RRGVRR sequence)": 61},
      {"binder": "ERRGVRR", "Binding affinity (relative to RRGVRR) (value relative to the RRGVRR sequence)": 43},
      {"binder": "RRGVRRE", "Binding affinity (relative to RRGVRR) (value relative to the RRGVRR sequence)": 33},
      {"binder": "KSLLR", "note": "[5mer-ND]", "Binding affinity (RU)": 23},
      {"binder": "RSYSR", "note": "[5mer-311]", "Binding affinity (RU)": 167},
      {"binder": "RKSLLR", "note": "[Spep 6mer]", "Binding affinity (RU)": 35}
    ]},
    {"molecular_target": "acetylcholine receptor", "assay": "SPR, peptide at 10 µM on acetylcholine receptor", "units": {"Binding affinity (RU)": "RU"}, "values": [
      {"binder": "RRQRR", "note": "[5mer-73]", "Binding affinity (RU)": 179}
    ]},
    {"molecular_target": "acetylcholine receptor", "assay": "SPR, receptor immobilized, peptide 10 uM", "units": {"Binding affinity": "RU"}, "values": [
      {"binder": "RWRYKR", "note": "[6mer-2-136]", "Binding affinity": 194}
    ]},
    {"molecular_target": "acetylcholine receptor", "assay": "SPR, peptide at 10 uM over immobilized acetylcholine receptor", "units": {"Binding affinity (RU)": "RU"}, "values": [
      {"binder": "RRATER", "note": "[6mer-1-1198]", "Binding affinity (RU)": 28},
      {"binder": "KKTNKR", "note": "[6mer-1-1199]", "Binding affinity (RU)": 39},
      {"binder": "RKACEK", "note": "[6mer-1-1200]", "Binding affinity (RU)": 21},
      {"binder": "KWFLRK", "note": "[6mer-2-69]", "Binding affinity (RU)": 139},
      {"binder": "KRLLRK", "note": "[6mer-2-70]", "Binding affinity (RU)": 126},
      {"binder": "KQVYKR", "note": "[6mer-2-71]", "Binding affinity (RU)": 141},
      {"binder": "KRIQKK", "note": "[6mer-2-72]", "Binding affinity (RU)": 144},
      {"binder": "RLYTKR", "note": "[6mer-2-73]", "Binding affinity (RU)": 139},
      {"binder": "RWIYKR", "note": "[6mer-2-74]", "Binding affinity (RU)": 136},
      {"binder": "KLYTRK", "note": "[6mer-2-75]", "Binding affinity (RU)": 133},
      {"binder": "RRQSRK", "note": "[6mer-2-76]", "Binding affinity (RU)": 142},
      {"binder": "KQQTRR", "note": "[6mer-2-77]", "Binding affinity (RU)": 123},
      {"binder": "KRYLKR", "note": "[6mer-2-78]", "Binding affinity (RU)": 135},
      {"binder": "RQLSKR", "note": "[6mer-2-79]", "Binding affinity (RU)": 135},
      {"binder": "RRQYKR", "note": "[6mer-2-80]", "Binding affinity (RU)": 148},
      {"binder": "RRVSRR", "note": "[6mer-2-81]", "Binding affinity (RU)": 121},
      {"binder": "RGVQKK", "note": "[6mer-2-82]", "Binding affinity (RU)": 124},
      {"binder": "KQYQRR", "note": "[6mer-2-83]", "Binding affinity (RU)": 135},
      {"binder": "KQRYKK", "note": "[6mer-2-84]", "Binding affinity (RU)": 139},
      {"binder": "KSQYKR", "note": "[6mer-2-85]", "Binding affinity (RU)": 137},
      {"binder": "KQFRRK", "note": "[6mer-2-86]", "Binding affinity (RU)": 126},
      {"binder": "RRLTKR", "note": "[6mer-2-87]", "Binding affinity (RU)": 142},
      {"binder": "KSFQRR", "note": "[6mer-2-88]", "Binding affinity (RU)": 141},
      {"binder": "KSRSKK", "note": "[6mer-2-89]", "Binding affinity (RU)": 141},
      {"binder": "KGRTKR", "note": "[6mer-2-90]", "Binding affinity (RU)": 133},
      {"binder": "KWIYKR", "note": "[6mer-2-91]", "Binding affinity (RU)": 121},
      {"binder": "KVVCKR", "note": "[6mer-2-92]", "Binding affinity (RU)": 131},
      {"binder": "RWQTRR", "note": "[6mer-2-93]", "Binding affinity (RU)": 133},
      {"binder": "RLYQRK", "note": "[6mer-2-94]", "Binding affinity (RU)": 126},
      {"binder": "RRIYRK", "note": "[6mer-2-95]", "Binding affinity (RU)": 142},
      {"binder": "KWRQRK", "note": "[6mer-2-96]", "Binding affinity (RU)": 154},
      {"binder": "RQFYRK", "note": "[6mer-2-97]", "Binding affinity (RU)": 154},
      {"binder": "RRQQRR", "note": "[6mer-2-98]", "Binding affinity (RU)": 148},
      {"binder": "RQRSRR", "note": "[6mer-2-99]", "Binding affinity (RU)": 151},
      {"binder": "RRRCRR", "note": "[6mer-2-100]", "Binding affinity (RU)": 142},
      {"binder": "RLICRK", "note": "[6mer-2-101]", "Binding affinity (RU)": 154},
      {"binder": "KVYQKK", "note": "[6mer-2-102]", "Binding affinity (RU)": 139},
      {"binder": "RVVTKK", "note": "[6mer-2-103]", "Binding affinity (RU)": 136},
      {"binder": "RGVCRK", "note": "[6mer-2-104]", "Binding affinity (RU)": 145},
      {"binder": "RGFTRR", "note": "[6mer-2-105]", "Binding affinity (RU)": 151},
      {"binder": "RWVQRK", "note": "[6mer-2-106]", "Binding affinity (RU)": 123},
      {"binder": "RGVYRK", "note": "[6mer-2-107]", "Binding affinity (RU)": 144},
      {"binder": "RVVYKK", "note": "[6mer-2-108]", "Binding affinity (RU)": 153},
      {"binder": "RRVYRK", "note": "[6mer-2-109]", "Binding affinity (RU)": 144},
      {"binder": "KSQLKK", "note": "[6mer-2-110]", "Binding affinity (RU)": 153},
      {"binder": "KLIRRK", "note": "[6mer-2-111]", "Binding affinity (RU)": 123},
      {"binder": "RLQQKR", "note": "[6mer-2-112]", "Binding affinity (RU)": 142},
      {"binder": "KRYSRK", "note": "[6mer-2-113]", "Binding affinity (RU)": 145},
      {"binder": "KLQYRK", "note": "[6mer-2-114]", "Binding affinity (RU)": 121},
      {"binder": "KWQYRK", "note": "[6mer-2-115]", "Binding affinity (RU)": 144},
      {"binder": "KLQRKK", "note": "[6mer-2-116]", "Binding affinity (RU)": 126},
      {"binder": "KRYTRK", "note": "[6mer-2-117]", "Binding affinity (RU)": 148},
      {"binder": "KWFSRR", "note": "[6mer-2-118]", "Binding affinity (RU)": 135},
      {"binder": "RSISKK", "note": "[6mer-2-119]", "Binding affinity (RU)": 139},
      {"binder": "RRQCRK", "note": "[6mer-2-120]", "Binding affinity (RU)": 146},
      {"binder": "KRVYRK", "note": "[6mer-2-121]", "Binding affinity (RU)": 137},
      {"binder": "RVITKK", "note": "[6mer-2-122]", "Binding affinity (RU)": 125},
      {"binder": "RQFTKR", "note": "[6mer-2-123]", "Binding affinity (RU)": 146}
    ]},
    {"molecular_target": "acetylcholine receptor", "assay": "SPR, AchR on chip, peptide 10 uM", "units": {"Binding affinity (RU)": "RU"}, "values": [
      {"binder": "RSYSR", "note": "[5mer-311]", "Binding affinity (RU)": 167}
    ]}
  ]
}
